According to paper doi:10.1101/2022.06.13.496009:

Target: T1, SALL4 ZFC4 (human, UniProt Q9UJQ4 856-930)
T1 sequence: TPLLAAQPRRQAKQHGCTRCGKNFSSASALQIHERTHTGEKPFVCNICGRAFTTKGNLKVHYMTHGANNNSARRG
Test: ITC

B1: 12-mer T3C/A3'G (dsDNA)
DNA 1: GGCAATATTTCC
DNA 2: GGAAATATTGCC
Kd: ~9.95 µM
